Assay results as given in US20240067734A1 (Hoffmann-La Roche, published 2024).

T1: hu N(A2B2)A-avi-His (human)
T1 construct: Construct containing the A2 domain of human CEA, with avi and His tags; also called human CEA (A2 domain)
T1 chain: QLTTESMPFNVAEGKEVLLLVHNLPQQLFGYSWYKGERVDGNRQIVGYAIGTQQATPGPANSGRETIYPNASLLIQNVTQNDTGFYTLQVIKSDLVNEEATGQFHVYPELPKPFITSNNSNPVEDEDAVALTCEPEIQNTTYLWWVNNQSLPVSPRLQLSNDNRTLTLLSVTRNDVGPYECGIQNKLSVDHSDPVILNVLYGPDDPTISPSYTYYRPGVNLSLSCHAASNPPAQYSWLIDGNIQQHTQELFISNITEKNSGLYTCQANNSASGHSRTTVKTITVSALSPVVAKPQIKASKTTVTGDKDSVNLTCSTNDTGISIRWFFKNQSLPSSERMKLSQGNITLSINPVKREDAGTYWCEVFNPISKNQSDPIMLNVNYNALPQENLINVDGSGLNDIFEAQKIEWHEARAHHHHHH

T2: his avi huNKG2D ECD (human, biotinylated at the avi-tag (in the ELISA))
T2 construct: Human NKG2D ECD with N-terminal H6-avi tags, forms non-covalent dimers; also called recombinant human NKG2D
T2 chain: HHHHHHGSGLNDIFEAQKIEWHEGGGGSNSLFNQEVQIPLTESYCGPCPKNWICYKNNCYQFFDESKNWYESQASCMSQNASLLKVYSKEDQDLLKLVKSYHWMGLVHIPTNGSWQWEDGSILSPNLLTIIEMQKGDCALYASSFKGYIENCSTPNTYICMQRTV

T3: human NKG2D expressed on cells (human, UniProt P26718 1-216)
T3 construct: the cell type is named under assay; also called NKG2D on NK92 cells; HEK293T human NKG2D
T3 chain: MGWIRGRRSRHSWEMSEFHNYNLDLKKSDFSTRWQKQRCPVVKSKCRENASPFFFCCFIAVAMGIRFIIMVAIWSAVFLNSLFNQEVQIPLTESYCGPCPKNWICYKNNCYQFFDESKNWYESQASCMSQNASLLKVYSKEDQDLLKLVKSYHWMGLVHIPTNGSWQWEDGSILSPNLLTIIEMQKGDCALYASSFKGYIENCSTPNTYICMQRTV


Tests used:
[1] = molecular target: T4, di muNKG2D ECD Fc avi (murine, biotinylated at the avi-tag); assay: ELISA; biotinylated antigen on streptavidin plate
T4 construct: Dimeric fusion of murine NKG2D ECD to the C-terminus of an avi-tagged human IgG1 Fc; also called recombinant murine NKG2D
T4 sequence (chain, as listed by the source limits assumed): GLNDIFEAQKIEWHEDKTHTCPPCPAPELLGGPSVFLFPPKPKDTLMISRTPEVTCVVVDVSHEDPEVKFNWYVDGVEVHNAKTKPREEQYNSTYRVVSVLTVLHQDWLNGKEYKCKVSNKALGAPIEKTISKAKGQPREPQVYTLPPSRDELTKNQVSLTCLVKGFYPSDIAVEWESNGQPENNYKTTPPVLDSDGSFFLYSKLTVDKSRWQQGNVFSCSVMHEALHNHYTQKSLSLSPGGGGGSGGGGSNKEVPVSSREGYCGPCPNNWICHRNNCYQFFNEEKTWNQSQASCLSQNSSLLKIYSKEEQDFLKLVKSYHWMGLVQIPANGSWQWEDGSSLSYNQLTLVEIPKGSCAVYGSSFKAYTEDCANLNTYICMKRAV
Experimental: Nunc streptavidin coated plates (MicroCoat, #11974998001) were coated with 25 μl/well biotinylated his avi huNKG2D ECD (SEQ ID NO: 93) at a concentration of 0.5 μg/ml and incubated at room temperature (RT) for 1 hour. After washing with 3×90 μl/well PBST-buffer (10×PBS, Roche #11666789001+0.1% TWEEN® (polysorbate) 20), 25 μl anti-NKG2D antibodies were added in 1:3 dilutions starting at a concentration of 3 μg/ml or alternatively with a 1:30 dilution of the original sample and incubated 1 h at RT. After washing (3×90 μl/well PBST-buffer), 25 μl/well anti hu kappa chain HRP (horseradish peroxidase)-conjugate (Millipore, #AP502P, 1:2000) was added and incubated at RT for 1 h. After washing (3×90 μl/well PBST-buffer) 25 μl/well TMB (3,3′,5,5′-tetramethylbenzidine) substrate (Roche, #11835033001) was added.
Nunc streptavidin coated plates (MicroCoat, #11974998001) were coated with 25 μl/well biotinylated di muNKG2D ECD Fc avi (SEQ ID NO: 98) at a concentration of 1 μg/ml and incubated at room temperature (RT) for 1 hour. The assay was performed as described above for human NKG2D.

[2] = molecular target: T1, hu N(A2B2)A-avi-His; assay: SPR Biacore T200; antigen captured via anti-His, bispecific analyte
Experimental: (§1) On a CM5 chip, an anti-penta-His capture antibody (Qiagen Penta-His Antibody, BSA-free; #34660) was immobilized by standard amine coupling on flow cells 2 and 3 at approximately 12′000 RU. […] Regeneration at the level of the anti-H6 tag capture antibody was achieved by 2 pulses of 10 mM glycine/HCl pH 2.0 for 60 s. Data were double-referenced against the unimmobilized flow cell 1 and a zero concentration of the analyte. The sensorgrams of the analytes were fitted to a simple 1:1 Langmuir interaction model.

[3] = molecular target: T2, his avi huNKG2D ECD; assay: as above
Experimental: as §1

[4] = molecular target: T3, human NKG2D expressed on cells; assay: flow cytometry; NK92 cells

| OD max [1] [OD] | Kd [2] [nM] | Kd [3] [nM] | EC50 [4] [nM] | Binder |
| --- | --- | --- | --- | --- |
| 0.1 |  |  |  | anti-NKG2D antibody clone 014 (antibody, V domains shown, From transgenic rabbits) VH: EVQLLESGGGLVQPGGSLRLSCAASGFTFSSYAMSWVRQAPGKGLEWVSRISDGGGTIYYTDSVKGRFTIARDNSKNTLYLEMKSLRAEDTAVYYCAKHRLYDSIGAYAMDVWGQGTTVAVSS VL: DIQMTQSPSSLSASVGDRVTITCRASQSISSYLNWYQQKPGKAPKLLIYDASNLETGVPSRFSGSGSGTDFTLTISSLQPEDFATYYCQQANSFPLTFGPGTKVDIK |
|  | 3.34 | 10.5 | 8.47 | NKG2D×CEA bispecific antibody in M format, P1AE4972 (395 C50S, non-humanized) / huA5B7 (bispecific antibody, V domains shown, also called non-humanized comparator) VH 1: QEQLEQSGGGLVTPGGSLKLCCTASGFDFNTFWMTWVRQAPGKGLEWIGSIHGGSGSRDYASWVNGRFTLSRDIDQSTACLQVNSLTAADTAMYYCARPGYRSWSKTFDLWGQGTMVTVSS VL 1: DIQMTQSPSSLSASVGDRVTITCRASQDISGALNWYQQKPGKAPNLLIYAASSLQSGVPSRFSGSGSGTDYTLTISSLQPEDFATYYCQQANSFPLTFGGGTKVEIK VH 2: EVQLLESGGGLVQPGGSLRLSCAASGFTFTDYYMNWVRQAPGKGLEWLGFIGNKANAYTTEYSASVKGRFTISRDKSKNTLYLQMNSLRAEDTATYYCTRDRGLRFYFDYWGQGTTVTVSS VL 2: EIVLTQSPATLSLSPGERATLSCRASSSVTYIHWYQQKPGQAPRSWIYATSNLASGIPARFSGSGSGTDFTLTISSLEPEDFAVYYCQHWSSKPPTFGQGTKLEIK |
|  | 3.77 | 22.9 | 19.6 | NKG2D×CEA bispecific antibody in M format, P1AE4977 / huA5B7 (bispecific antibody, V domains shown) VH 1: EVQLLESGGGLVQPGGSLRLSCAASGFDFNTFWMTWVRQAPGKGLEWVGSIHGGSGSRDYADSVKGRFTISRDIDQSTAYLQMNSLRAEDTAVYYCARPGYRSWSKTFDLWGQGTTVTVSS VL 1: DIQMTQSPSSLSASVGDRVTITCRASQDISGALNWYQQKPGKAPNLLIYAASSLQSGVPSRFSGSGSGTDYTLTISSLQPEDFATYYCQQANSFPLTFGGGTKVEIK VH 2: EVQLLESGGGLVQPGGSLRLSCAASGFTFTDYYMNWVRQAPGKGLEWLGFIGNKANAYTTEYSASVKGRFTISRDKSKNTLYLQMNSLRAEDTATYYCTRDRGLRFYFDYWGQGTTVTVSS VL 2: EIVLTQSPATLSLSPGERATLSCRASSSVTYIHWYQQKPGQAPRSWIYATSNLASGIPARFSGSGSGTDFTLTISSLEPEDFAVYYCQHWSSKPPTFGQGTKLEIK |
|  | 3.23 | 46.3 | 68.2 | NKG2D×CEA bispecific antibody in M format, P1AE4981 / huA5B7 (bispecific antibody, V domains shown) VH 1: QEQLQESGPGLVKPSETLSLTCTVSGFDFNTFWMTWIRQPPGKGLEWIGSIHGGSGSRDYNPSLKSRVTISVDIDQNQFSLKLSSVTAADTAVYYCARPGYRSWSKTFDLWGQGTTVTVSS VL 1: DIQMTQSPSSLSASVGDRVTITCRASQDISGALNWYQQKPGKAPNLLIYAASSLQSGVPSRFSGSGSGTDYTLTISSLQPEDFATYYCQQANSFPLTFGGGTKVEIK VH 2: EVQLLESGGGLVQPGGSLRLSCAASGFTFTDYYMNWVRQAPGKGLEWLGFIGNKANAYTTEYSASVKGRFTISRDKSKNTLYLQMNSLRAEDTATYYCTRDRGLRFYFDYWGQGTTVTVSS VL 2: EIVLTQSPATLSLSPGERATLSCRASSSVTYIHWYQQKPGQAPRSWIYATSNLASGIPARFSGSGSGTDFTLTISSLEPEDFAVYYCQHWSSKPPTFGQGTKLEIK |
|  | 2.55 | 14.5 | 17.6 | NKG2D×CEA bispecific antibody in M format, P1AE4973 / huA5B7 (bispecific antibody, V domains shown) VH 1: EVQLLESGGGLVQPGGSLRLSCAASGFDFNTFWMTWVRQAPGKGLEWVGSIHGGSGSRDYADSVKGRFTISRDNSKNTLYLQMNSLRAEDTAVYYCARPGYRSWSKTFDLWGQGTTVTVSS VL 1: DIQMTQSPSSLSASVGDRVTITCRASQDISGALNWYQQKPGKAPNLLIYAASSLQSGVPSRFSGSGSGTDYTLTISSLQPEDFATYYCQQANSFPLTFGGGTKVEIK VH 2: EVQLLESGGGLVQPGGSLRLSCAASGFTFTDYYMNWVRQAPGKGLEWLGFIGNKANAYTTEYSASVKGRFTISRDKSKNTLYLQMNSLRAEDTATYYCTRDRGLRFYFDYWGQGTTVTVSS VL 2: EIVLTQSPATLSLSPGERATLSCRASSSVTYIHWYQQKPGQAPRSWIYATSNLASGIPARFSGSGSGTDFTLTISSLEPEDFAVYYCQHWSSKPPTFGQGTKLEIK |
|  | 3.84 | 37.4 | 35.5 | NKG2D×CEA bispecific antibody in M format, P1AE4978 / huA5B7 (bispecific antibody, V domains shown) VH 1: EVQLVESGGGLVQPGGSLRLSCAASGFDFNTFWMTWVRQAPGKGLEWVGSIHGGSGSRDYADSVKGRFTISADIDQSTAYLQMNSLRAEDTAVYYCARPGYRSWSKTFDLWGQGTTVTVSS VL 1: DIQMTQSPSSLSASVGDRVTITCRASQDISGALNWYQQKPGKAPNLLIYAASSLQSGVPSRFSGSGSGTDYTLTISSLQPEDFATYYCQQANSFPLTFGGGTKVEIK VH 2: EVQLLESGGGLVQPGGSLRLSCAASGFTFTDYYMNWVRQAPGKGLEWLGFIGNKANAYTTEYSASVKGRFTISRDKSKNTLYLQMNSLRAEDTATYYCTRDRGLRFYFDYWGQGTTVTVSS VL 2: EIVLTQSPATLSLSPGERATLSCRASSSVTYIHWYQQKPGQAPRSWIYATSNLASGIPARFSGSGSGTDFTLTISSLEPEDFAVYYCQHWSSKPPTFGQGTKLEIK |
|  | 3.66 | 18.6 | 14.9 | NKG2D×CEA bispecific antibody in M format, P1AE4975 / huA5B7 (bispecific antibody, V domains shown) VH 1: EVQLLESGGGLVQPGGSLRLSCAASGFDFNTFWMTWVRQAPGKGLEWVGSIHGGSGSRDYADSVKGRFTISRDNSKNTAYLQMNSLRAEDTAVYYCARPGYRSWSKTFDLWGQGTTVTVSS VL 1: DIQMTQSPSSLSASVGDRVTITCRASQDISGALNWYQQKPGKAPNLLIYAASSLQSGVPSRFSGSGSGTDYTLTISSLQPEDFATYYCQQANSFPLTFGGGTKVEIK VH 2: EVQLLESGGGLVQPGGSLRLSCAASGFTFTDYYMNWVRQAPGKGLEWLGFIGNKANAYTTEYSASVKGRFTISRDKSKNTLYLQMNSLRAEDTATYYCTRDRGLRFYFDYWGQGTTVTVSS VL 2: EIVLTQSPATLSLSPGERATLSCRASSSVTYIHWYQQKPGQAPRSWIYATSNLASGIPARFSGSGSGTDFTLTISSLEPEDFAVYYCQHWSSKPPTFGQGTKLEIK |
|  | 5.13 | 17.2 | 13.1 | NKG2D×CEA bispecific antibody in M format, P1AE4979 / huA5B7 (bispecific antibody, V domains shown) VH 1: QEQLLESGGGLVQPGGSLRLSCAASGFDFNTFWMTWVRQAPGKGLEWVGSIHGGSGSRDYADSVKGRFTISRDIDQSTAYLQMNSLRAEDTAVYYCARPGYRSWSKTFDLWGQGTTVTVSS VL 1: DIQMTQSPSSLSASVGDRVTITCRASQDISGALNWYQQKPGKAPNLLIYAASSLQSGVPSRFSGSGSGTDYTLTISSLQPEDFATYYCQQANSFPLTFGGGTKVEIK VH 2: EVQLLESGGGLVQPGGSLRLSCAASGFTFTDYYMNWVRQAPGKGLEWLGFIGNKANAYTTEYSASVKGRFTISRDKSKNTLYLQMNSLRAEDTATYYCTRDRGLRFYFDYWGQGTTVTVSS VL 2: EIVLTQSPATLSLSPGERATLSCRASSSVTYIHWYQQKPGQAPRSWIYATSNLASGIPARFSGSGSGTDFTLTISSLEPEDFAVYYCQHWSSKPPTFGQGTKLEIK |
